Data as given in patent publication US9926369B2, “Methods for treating hepatocellular cancer by administering an anti-Ang-2 antibody” (Regeneron Pharmaceuticals, Inc., priority 2009, dated 2018).

Experiments:
[1] = biological target: T1, hAng-2FD-mFc S-480-P (Homo sapiens, UniProt O15123, S480P); experiment: Ang-2FD-mFc point mutant binding experiment (SPR), S-480-P; conditions: S-480-P mutant captured; antibody/peptibody at 100 nM; 25° C.
T1 construct: made in house
From the text: To further characterize binding between hAng2 and anti-hAng2 mAbs of the invention, seven variant hAng2-FD-mFc proteins were generated, each containing a single point mutation. Amino acids selected for mutation were based on the difference in sequence between hAng-2 and hAng-1 in the region that interacts with hTie-2 (FIG. 1). In particular, amino acids within the fibrinogen-like domain (FD) of Ang-2 which are believed to interact with Tie-2 based on crystal structure analysis, but which differ from the corresponding amino acid in Ang-1, were individually mutated to the corresponding hAng-1 residue. The results of this example indicate the amino acid residues of hAng-2 with which the Ang-2 preferential binding antibodies interact.
In this experiment, each of the seven hAng-2FD-mFc mutant proteins were captured (˜147-283 RU) on an anti-mouse-Fc surface created through direct chemical coupling to a BIACORE™ chip. Then each Ang-2 antibody (or peptibody, as the case may be) at 100 nM was injected over the captured mFc-tagged hAng-2FD protein surface at a flowrate of 50 μl/min for 180 sec, and the dissociation of variant hAng2-FD-mFc and antibody was monitored in real time for 20 min at 25° C.

[2] = tested on: advanced solid tumor malignancies; experiment: Ascending, multiple-dose clinical trial of intravenously administered mAb1 in patients with advanced cancer; type: in vivo
Procedure: This study was an open-label, ascending, multiple-dose study of mAb1 administered as an intravenous (IV) infusion (30 minutes) at doses of 1, 3, 6, 12 or 20 mg/kg once every 2 weeks. The study was conducted in patients with advanced solid tumor malignancies who have failed conventional therapy. The purpose of the study was to explore the safety, recommended dose (RD), pharmacokinetics (PK), pharmacodynamics (PD) and anti-tumor activity of mAb1 (also known as “H1H685P”).
Patients were screened to determine eligibility within 28 days prior to the first dose administration. Three patients were assigned to each of the five sequential cohorts (1, 3, 6, 12 or 20 mg/kg). Patients received mAb1 as a 30 minute IV infusion on Days 1 and 15 of each 4-week cycle (28 days). The dose of mAb1 was escalated until the recommended dose was determined, based on safety, tolerability, PK, PD testing and/or maximum tolerated dose (MTD). The MTD is defined as the highest dose at which less than 33% of patients experience dose-limiting toxicity (DLT) during the first cycle of therapy.
Six dose levels were planned for studying dose escalation. Starting at dose 1, a minimum of 3 patients was entered at each dose level. […] If no further cycle 1 DLT was observed, dose escalation proceeded to the next dose level. If two or more patients experienced a cycle 1 DLT, dose escalation was stopped and the previous lower dose level was expanded to 6 patients. Once the RD was determined, up to 10 additional patients were enrolled to evaluate safety and other biological/clinical effects. A separate cohort was planned for patients with hepatocellular carcinoma (HCC) where up to 10 patients were enrolled based on the eligibility criteria (listed below).
A DLT is defined by any of the following treatment-related events occurring during the first cycle (28 days) of study treatment: (1) Hematologic toxicity as evidenced by (a) Grade 3 or 4 neutropenia complicated by fever 38.5° C. or infection; (b) Grade 4 neutropenia of at least 7 days duration; (c) Grade 3 thrombocytopenia complicated by hemorrhage; or (d) Grade 4 thrombocytopenia; and/or (2) Non-hematologic toxicity as evidenced by (a) any Grade 4 non-hematologic toxicity; or (b) Grade 3 non-hematologic toxicities except fatigue, anorexia, nausea, vomiting or diarrhea that can be controlled by medication. Grade 3 laboratory changes that reflected tumor burden were not considered as DLT.
Safety was assessed throughout the study by monitoring Adverse Events and Serious Adverse Events.
For tumor assessment, a CT or MRI was performed at the screening visit (within 28 days prior to infusion) and during every even-numbered cycle (eg cycles 2, 4, 6, 8) between days 15 and 28 and when disease progression was suspected. Tumor assessment was performed according to Response Evaluation Criteria in Solid Tumors version 1.1 (RECIST version 1.1). RECIST criteria are developed to facilitate objective assessment of change in tumor burden such as tumor shrinkage and time to development of disease progression. RECIST guidelines are posted on the worldwide web at http://ctep(dot)cancer(dot)gov(slash)protocoldevelopment(slash)docs(slash)recist_guideline(dot)pdf. Tumor marker assessments were also collected, when available.
Blood samples were collected for RNA, serum cytokine testing, molecular profiling, anti-drug antibody (ADA) and serum mAb1 levels at screening and post-infusion on days 1, 2, 3, 8, 15 and 22 of cycle 1, and on day 1 of subsequent cycles. Tumor biopsies were obtained for immunohistochemistry studies for Ang-2. Results were scored as positive for Ang-2 in association with expression of endothelial cell CD31.

T1 sequence (O15123 with tags, fused parts or gaps S480P): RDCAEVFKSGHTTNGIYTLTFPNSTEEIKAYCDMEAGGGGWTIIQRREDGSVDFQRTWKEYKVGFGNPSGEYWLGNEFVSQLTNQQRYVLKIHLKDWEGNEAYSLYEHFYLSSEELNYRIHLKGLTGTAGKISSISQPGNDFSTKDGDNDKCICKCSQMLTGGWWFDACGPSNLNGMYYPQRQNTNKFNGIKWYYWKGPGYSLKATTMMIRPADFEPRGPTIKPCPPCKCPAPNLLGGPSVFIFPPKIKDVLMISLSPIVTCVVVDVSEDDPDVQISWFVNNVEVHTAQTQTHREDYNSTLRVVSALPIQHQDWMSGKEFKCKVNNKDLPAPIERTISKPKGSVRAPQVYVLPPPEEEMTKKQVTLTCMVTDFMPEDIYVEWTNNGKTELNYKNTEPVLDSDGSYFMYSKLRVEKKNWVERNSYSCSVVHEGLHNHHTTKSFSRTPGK

H1H685P: human anti-Ang-2 antibody, HCVR/LCVR SEQ ID NOs 18/20; also referred to as mAb1 [Antibody H1H685P]
Kd [1]: 205 pM
RU [1]: 161.13 RU
Positive ADA detected ([2]; 3 mg/kg): 1 patient
Confirmed sustained patient response (PR), duration ([2]; 1 patient with adrenocortical cancer treated at 1 mg/kg): 16 wks
Stable disease (SD), patients evaluable for efficacy ([2]; 17 of 32 patients): 53%
Total circulating serum Ang2 levels following treatment ([2]; all cohorts): saturated
Maximum tolerated dose (MTD) ([2]; human, in vivo, iv): not reached
Stable disease (SD), duration ([2]; one patient with thyroid cancer): 46 weeks
Treatment-related adverse events (G½): abdominal distension ([2]; patients): 11%
Treatment-related adverse events (G½): decreased appetite ([2]; patients): 11%
Treatment-related adverse events (G½): diarrhea ([2]; patients): 14%
Treatment-related adverse events (G½): fatigue ([2]; patients): 19%
Treatment-related adverse events (G½): peripheral edema ([2]; patients): 17%
≥Grade 3 TRAEs ([2]; patients): no ≥Grade 3 TRAEs
Stable disease (SD), duration range ([2]; patients evaluable for efficacy): 3.3-46.8 weeks
Tolerability ([2]; patients with advanced cancer): generally well tolerated
Dose-limiting toxicities (DLTs) ([2]; patients, 1, 3, 6, 12 and 20 mg/kg IV every 2 weeks): No DLTs
Pharmacokinetics (PK) across all dose levels ([2]; patients, IV): linear and dose-proportional
